# From paper PMC5394417, “Investigating the molecular mechanism of positive and negative allosteric modulators in the calcium-sensing receptor dimer” (Scientific Reports, 2017)
# Target: the molecule itself
# Experiment: FRET or BRET; TR-FRET dimerization assay on transiently transfected HEK293T cells co-expressing an HA-tagged and a myc-tagged construct (1:1); Tb3+-conjugated anti-HA antibody (donor, 1 nM) and d2-conjugated anti-myc antibody (acceptor, 50 nM), 24 h at 4 °C; HBSS, 20 mM HEPES, 0.5 mM CaCl2, 0.5 mM MgCl2, 5 mg/mL bovine serum albumin, pH 7.4; FRET ratio (665 nm/615 nm) normalized to pEGFPN1
row,Protein,fold increase in FRET signal [fold]
1,"rat calcium-sensing receptor, wild type (receptor, UniProt P48442 20-1079, looked up, calcium-sensing receptor (CaSR), rat; Each copy carries one tag only, HA or myc; the two differently tagged copies were co-expressed; The mGluR5 signal peptide stands upstream of the tag; also called CaSR; WT HA-CaSR; source: HEK293T, transiently transfected (Lipofectamine 2000), on cells; not shown: HA (one copy), N-terminal, kept; myc (the other copy), N-terminal, kept) YGPDQRAQKKGDIILGGLFPIHFGVAAKDQDLKSRPESVECIRYNFRGFRWLQAMIFAIEEINSSPSLLPNMTLGYRIFDTCNTVSKALEATLSFVAQNKIDSLNLDEFCNCSEHIPSTIAVVGATGSGVSTAVANLLGLFYIPQVSYASSSRLLSNKNQYKSFLRTIPNDEHQATAMADIIEYFRWNWVGTIAADDDYGRPGIEKFREEAEERDICIDFSELISQYSDEEEIQQVVEVIQNSTAKVIVVFSSGPDLEPLIKEIVRRNITGRIWLASEAWASSSLIAMPEYFHVVGGTIGFGLKAGQIPGFREFLQKVHPRKSVHNGFAKEFWEETFNCHLQEGAKGPLPVDTFVRSHEEGGNRLLNSSTAFRPLCTGDENINSVETPYMDYEHLRISYNVYLAVYSIAHALQDIYTCLPGRGLFTNGSCADIKKVEAWQVLKHLRHLNFTNNMGEQVTFDECGDLVGNYSIINWHLSPEDGSIVFKEVGYYNVYAKKGERLFINEEKILWSGFSREVPFSNCSRDCQAGTRKGIIEGEPTCCFECVECPDGEYSGETDASACDKCPDDFWSNENHTSCIAKEIEFLAWTEPFGIALTLFAVLGIFLTAFVLGVFIKFRNTPIVKATNRELSYLLLFSLLCCFSSSLFFIGEPQDWTCRLRQPAFGISFVLCISCILVKTNRVLLVFEAKIPTSFHRKWWGLNLQFLLVFLCTFMQILICIIWLYTAPPSSYRNHELEDEIIFITCHEGSLMALGSLIGYTCLLAAICFFFAFKSRKLPENFNEAKFITFSMLIFFIVWISFIPAYASTYGKFVSAVEVIAILAASFGLLACIFFNKVYIILFKPSRNTIEEVRSSTAAHAFKVAARATLRRPNISRKRSSSLGGSTGSIPSSSISSKSNSEDRFPQPERQKQQQPLSLTQQEQQQQPLTLHPQQQQQPQQPRCKQKVIFGSGTVTFSLSFDEPQKNAMAHRNSMRQNSLEAQRSNDTLGRHQALLPLQCADADSEMTIQETGLQGPMVGDHQPEMESSDEMSPALVMSTSRSFVISGGGSSVTENVLHS",11.8
2,"rat GPRC6A, wild type (receptor, UniProt Q70VB1 21-928, looked up, GPRC6A, rat; previously described myc-tagged rat GPRC6A-pEGFPN1 construct with the mGluR5 signal peptide upstream of the myc tag; Each copy carries one tag only, HA or myc; the HA-GPRC6A construct is not described; also called WT myc-GPRC6A; WT HA-GPRC6A; source: HEK293T, transiently transfected (Lipofectamine 2000), on cells; not shown: HA (one copy), N-terminal, kept; myc (the other copy), …) CHTPDDFVAITSPGHIMIGGLFAIHEKMLSSDDHPRQPQIQKCVGFEISVFLQTLAMIHSIEMINNSSLLSGVKLGYEIYDTCTEVTAAMAATLRFLSKFNCSRETVIFQCDYSSYVPRVKAIIGAGYSEISMAVSRMLNLQLMPQVSYESTAEILSDKIRFPSFLRTVPSDFYQTKAMAHLIRQSGWNWVGAITTDDDYGRLALNTFAIQAAENNVCIAFKEVLPAFLSDNTIEVRINQTLEKIIAEAQVNVIVVFLRKFHVFNLFNKAIERKISKIWIASDNWSTAAKIITIPNVKKLGKVVGFTFRRGNMSSFHSFLQTLHMYPSDNNKPLHEFAMLFSACKHIKDGDLSQCISNYSQATWTYDTTKTIETHLFKRNDFLWHYTEPGLIHSIQLAVLALGHAIRDLCQDRDCQKPNAFQPWELLAVLKNVTFTDGKNSFHFDAHGDLNTGYEVVLWKETNGLMTVTKMAEYDLQHDVFITTNQETKHEFRKLKQILSKCSKECIPGQMKKATGSQHSCCYECVNCPENHYSNETDMDHCLVCNNETHWAPVRSTMCFEKEVEYLDWDDSLALLLIALSLLGIAFVLAVGIIFTRNLKTPVVKSSGGLVVCYVMLACHALNFASTGFFIGEPQDFTCKTRQTLFGVSFTLCVSCILTKSLKILLAFSFDPTLKTFLKCLYRPVPIVLTCTGIQVVICTLWLVLAAPTVEENTSLPRVIILECEEGSALAFGTMLGYIAVLAFICFVFAFKGRKLPENYNEAKFLTFGMLIYFIAWITFIPVYATTFGKYLPAVEIIVILISNYGILCCTFFPKCYIILCKQKTNTKSVFLQMVYNYSAHSVDSLALSHVSLDSASHSTATTNPRPGNKTAACQNYKHLPVQVLAHTGMEKTMHASKTLHQKRSSSI",9.8
